{"source": "paper PMC4626089", "about": "“In Vitro Mutational Analysis of the β2 Adrenergic Receptor, an In Vivo Surrogate Odorant Receptor” (PLoS ONE, 2015)", "assay": "GFP-labeled filopodia count per OP6 cell", "settings": "glycan lost; control: WT mβ2AR::GFP", "data": [{"substance": "mouse β2-adrenergic-receptor (mβ2AR): No-NxS", "values": [{"measurement": "localisation_or_trafficking, other: GFP-labeled filopodia per cell", "result": "no change, 13.6 ±8.3 vs 31.8 ±16.2"}]}]}
